Assay results published in article PMC5561129.

Biological target: full-length 3xflag-LRRK1 (leucine-rich repeat kinase 1) (human) (UniProt Q38SD2)
Assay: cryo-EM structure; single particle cryo-EM of purified 3xflag-LRRK1 eluted in Tris buffer at pH 7.4 with 0.02% Triton X-100; thin carbon film on Quantifoil grids; EMAN2 2D classes and 3D reconstruction

stoichiometry N: 2
Substance: full-length 3xflag-LRRK1 (leucine-rich repeat kinase 1), Q38SD2 1-2015
